Reference: US20230051304A1 (Regeneron, published 2023)

B1: Monovalent: IL12(p35xp40)-Fc (Fc fusion)
chain 1: RVIPVSGPARCLSQSRNLLKTTDDMVKTAREKLKHYSCTAEDIDHEDITRDQTSTLKTCLPLELHKNESCLATRETSSTTRGSCLPPQKTSLMMTLCLGSIYEDLKMYQTEFQAINAALQNHNHQQIILDKGMLVAIDELMQSLNHNGETLRQKPPVGEADPYRVKMKLCILLHAFSTRVVTINRVMGYLSSAGGGGSGGGGSGGGGSESKYGPPCPPCPAPPVAGPSVFLFPPKPKDTLMISRTPEVTCVVVDVSQEDPEVQFNWYVDGVEVHNAKTKPREEQFNSTYRVVSVLTVLHQDWLNGKEYKCKVSNKGLPSSIEKTISKAKGQPREPQVYTLPPSQEEMTKNQVSLWCLVKGFYPSDIAVEWESNGQPENNYKTTPPVLDSDGSFFLYSRLTVDKSRWQEGNVFSCSVMHEALHNHYTQKSLSLSLGK
chain 2: MWELEKDVYVVEVDWTPDAPGETVNLTCDTPEEDDITWTSDQRHGVIGSGKTLTITVKEFLDAGQYTCHKGGETLSHSHLLLHKKENGIWSTEILKNFKNKTFLKCEAPNYSGRFTCSWLVQRNMDLKFNIKSSSSSPDSRAVTCGMASLSAEKVTLDQRDYEKYSVSCQEDVTCPTAEETLPIELALEARQQNKYENYSTSFFIRDIIKPDPPKNLQMKPLKNSQVEVSWEYPDSWSTPHSYFSLKFFVRIQRKKEKMKETEEGCNQKGAFLVEKTSTEVQCKGGNVCVQAQDRYYNSSCSKWACVPCRVRSGGGGSGGGGSGGGGSESKYGPPCPPCPAPPVAGPSVFLFPPKPKDTLMISRTPEVTCVVVDVSQEDPEVQFNWYVDGVEVHNAKTKPREEQFNSTYRVVSVLTVLHQDWLNGKEYKCKVSNKGLPSSIEKTISKAKGQPREPQVYTLPPSQEEMTKNQVSLSCAVKGFYPSDIAVEWESNGQPENNYKTTPPVLDSDGSFFLVSRLTVDKSRWQEGNVFSCSVMHEALHNRFTQKSLSLSPGK
B2: Monovalent: IL12*(p35*xp40*)-Fc (Fc fusion)
chain 1: RVIPVSGPARCLSQSRNLLKTTDDMVKTAREKLKHYSCTAEDIDHEDITRDQTSTLKTCLPLELHKNESSLATRETSSTTRGSCLPPQKTSLMMTLCLGSIYEDLKMYQTEFQAINAALQNHNHQQIILDKGMLVAIDELMQSLNHNGETLRQKPPVGEADPYRVKMKLCILLHAFSTRVVTINRVMGYLSSAGGGGSGGGGSGGGGSESKYGPPCPPCPAPPVAGPSVFLFPPKPKDTLMISRTPEVTCVVVDVSQEDPEVQFNWYVDGVEVHNAKTKPREEQFNSTYRVVSVLTVLHQDWLNGKEYKCKVSNKGLPSSIEKTISKAKGQPREPQVYTLPPSQEEMTKNQVSLWCLVKGFYPSDIAVEWESNGQPENNYKTTPPVLDSDGSFFLYSRLTVDKSRWQEGNVFSCSVMHEALHNHYTQKSLSLSLGK
chain 2: MWELEKDVYVVEVDWTPDAPGETVNLTCDTPEEDDITWTSDQRHGVIGSGKTLTITVKEFLDAGQYTCHKGGETLSHSHLLLHKKENGIWSTEILKNFKNKTFLKCEAPNYSGRFTCSWLVQRNMDLKFNIKSSSSSPDSRAVTCGMASLSAEKVTLDQRDYEKYSVSCQEDVTSPTAEETLPIELALEARQQNKYENYSTSFFIRDIIKPDPPKNLQMKPLKNSQVEVSWEYPDSWSTPHSYFSLKFFVRIQRKKEKMKETEEGCNQKGAFLVEKTSTEVQCKGGNVCVQAQDRYYNSSCSKWACVPCRVRSGGGGSGGGGSGGGGSESKYGPPCPPCPAPPVAGPSVFLFPPKPKDTLMISRTPEVTCVVVDVSQEDPEVQFNWYVDGVEVHNAKTKPREEQFNSTYRVVSVLTVLHQDWLNGKEYKCKVSNKGLPSSIEKTISKAKGQPREPQVYTLPPSQEEMTKNQVSLSCAVKGFYPSDIAVEWESNGQPENNYKTTPPVLDSDGSFFLVSRLTVDKSRWQEGNVFSCSVMHEALHNRFTQKSLSLSPGK
B3: Bivalent: IL12(p40-p35)-Fc (Fc fusion)
chain: MWELEKDVYVVEVDWTPDAPGETVNLTCDTPEEDDITWTSDQRHGVIGSGKTLTITVKEFLDAGQYTCHKGGETLSHSHLLLHKKENGIWSTEILKNFKNKTFLKCEAPNYSGRFTCSWLVQRNMDLKFNIKSSSSSPDSRAVTCGMASLSAEKVTLDQRDYEKYSVSCQEDVTCPTAEETLPIELALEARQQNKYENYSTSFFIRDIIKPDPPKNLQMKPLKNSQVEVSWEYPDSWSTPHSYFSLKFFVRIQRKKEKMKETEEGCNQKGAFLVEKTSTEVQCKGGNVCVQAQDRYYNSSCSKWACVPCRVRSGGGGSGGGGSGGGGSRVIPVSGPARCLSQSRNLLKTTDDMVKTAREKLKHYSCTAEDIDHEDITRDQTSTLKTCLPLELHKNESCLATRETSSTTRGSCLPPQKTSLMMTLCLGSIYEDLKMYQTEFQAINAALQNHNHQQIILDKGMLVAIDELMQSLNHNGETLRQKPPVGEADPYRVKMKLCILLHAFSTRVVTINRVMGYLSSAGGGGSGGGGSGGGGSESKYGPPCPPCPAPPVAGPSVFLFPPKPKDTLMISRTPEVTCVVVDVSQEDPEVQFNWYVDGVEVHNAKTKPREEQFNSTYRVVSVLTVLHQDWLNGKEYKCKVSNKGLPSSIEKTISKAKGQPREPQVYTLPPSQEEMTKNQVSLTCLVKGFYPSDIAVEWESNGQPENNYKTTPPVLDSDGSFFLYSRLTVDKSRWQEGNVFSCSVMHEALHNHYTQKSLSLSLGK
B4: Bivalent: IL12*(p40*-p35*)-Fc (Fc fusion)
chain: MWELEKDVYVVEVDWTPDAPGETVNLTCDTPEEDDITWTSDQRHGVIGSGKTLTITVKEFLDAGQYTCHKGGETLSHSHLLLHKKENGIWSTEILKNFKNKTFLKCEAPNYSGRFTCSWLVQRNMDLKFNIKSSSSSPDSRAVTCGMASLSAEKVTLDQRDYEKYSVSCQEDVTSPTAEETLPIELALEARQQNKYENYSTSFFIRDIIKPDPPKNLQMKPLKNSQVEVSWEYPDSWSTPHSYFSLKFFVRIQRKKEKMKETEEGCNQKGAFLVEKTSTEVQCKGGNVCVQAQDRYYNSSCSKWACVPCRVRSGGGGSGGGGSGGGGSRVIPVSGPARCLSQSRNLLKTTDDMVKTAREKLKHYSCTAEDIDHEDITRDQTSTLKTCLPLELHKNESSLATRETSSTTRGSCLPPQKTSLMMTLCLGSIYEDLKMYQTEFQAINAALQNHNHQQIILDKGMLVAIDELMQSLNHNGETLRQKPPVGEADPYRVKMKLCILLHAFSTRVVTINRVMGYLSSAGGGGSGGGGSGGGGSESKYGPPCPPCPAPPVAGPSVFLFPPKPKDTLMISRTPEVTCVVVDVSQEDPEVQFNWYVDGVEVHNAKTKPREEQFNSTYRVVSVLTVLHQDWLNGKEYKCKVSNKGLPSSIEKTISKAKGQPREPQVYTLPPSQEEMTKNQVSLTCLVKGFYPSDIAVEWESNGQPENNYKTTPPVLDSDGSFFLYSRLTVDKSRWQEGNVFSCSVMHEALHNHYTQKSLSLSLGK
B5: Bivalent: Fc-IL12*(p40*-p35*) (Fc fusion)
chain: ESKYGPPCPPCPAPPVAGPSVFLFPPKPKDTLMISRTPEVTCVVVDVSQEDPEVQFNWYVDGVEVHNAKTKPREEQFNSTYRVVSVLTVLHQDWLNGKEYKCKVSNKGLPSSIEKTISKAKGQPREPQVYTLPPSQEEMTKNQVSLTCLVKGFYPSDIAVEWESNGQPENNYKTTPPVLDSDGSFFLYSRLTVDKSRWQEGNVFSCSVMHEALHNHYTQKSLSLSLGKGGGGSGGGGSGGGGSMWELEKDVYVVEVDWTPDAPGETVNLTCDTPEEDDITWTSDQRHGVIGSGKTLTITVKEFLDAGQYTCHKGGETLSHSHLLLHKKENGIWSTEILKNFKNKTFLKCEAPNYSGRFTCSWLVQRNMDLKFNIKSSSSSPDSRAVTCGMASLSAEKVTLDQRDYEKYSVSCQEDVTSPTAEETLPIELALEARQQNKYENYSTSFFIRDIIKPDPPKNLQMKPLKNSQVEVSWEYPDSWSTPHSYFSLKFFVRIQRKKEKMKETEEGCNQKGAFLVEKTSTEVQCKGGNVCVQAQDRYYNSSCSKWACVPCRVRSGGGGSGGGGSGGGGSRVIPVSGPARCLSQSRNLLKTTDDMVKTAREKLKHYSCTAEDIDHEDITRDQTSTLKTCLPLELHKNESSLATRETSSTTRGSCLPPQKTSLMMTLCLGSIYEDLKMYQTEFQAINAALQNHNHQQIILDKGMLVAIDELMQSLNHNGETLRQKPPVGEADPYRVKMKLCILLHAFSTRVVTINRVMGYLSSA
B6: IL12(mutein 13)-Fc (Fc fusion)
chain: NGIWSTEILKNFKNKTFLKCEAPNYSGRFTCSWLVQRNMDLKFNIKSSSSSPDSRAVTCGMASLSAEKVTLDQRDYEKYSVSCQEDVTCPTAEETLPIELALEARQQNKYENYSTSFFIRDIIKPDPPKNLQMKPLKNSQVEVSWEYPDSWSTPHSYFSLKFFVRIQRKKEKMKETEEGCNQKGAFLVEKTSTEVQCKGGNVCVQAQDRYYNSSCSKWACVPCRVRSGGGGSGGGGSGGGGSRVIPVSGPARCLSQSRNLLKTTDDMVKTAREKLKHYSCTAEDIDHEDITRDQTSTLKTCLPLELHKNESCLATRETSSTTRGSCLPPQKTSLMMTLCLGSIYEDLKMYQTEFQAINAALQNHNHQQIILDKGMLVAIDELMQSLNHNGETLRQKPPVGEADPYRVKMKLCILLHAFSTRVVTINRVMGYLSSAGGGGSGGGGSGGGGSESKYGPPCPPCPAPPVAGPSVFLFPPKPKDTLMISRTPEVTCVVVDVSQEDPEVQFNWYVDGVEVHNAKTKPREEQFNSTYRVVSVLTVLHQDWLNGKEYKCKVSNKGLPSSIEKTISKAKGQPREPQVYTLPPSQEEMTKNQVSLTCLVKGFYPSDIAVEWESNGQPENNYKTTPPVLDSDGSFFLYSRLTVDKSRWQEGNVFSCSVMHEALHNHYTQKSLSLSLGK

Molecular target: T1, murine IL12 receptor complex (IL12Rβ1 and IL12Rβ2) (mouse, UniProt Q60837 20-738; P97378 24-874)
T1 sequence (Q60837 20-738, chain 1 of 2): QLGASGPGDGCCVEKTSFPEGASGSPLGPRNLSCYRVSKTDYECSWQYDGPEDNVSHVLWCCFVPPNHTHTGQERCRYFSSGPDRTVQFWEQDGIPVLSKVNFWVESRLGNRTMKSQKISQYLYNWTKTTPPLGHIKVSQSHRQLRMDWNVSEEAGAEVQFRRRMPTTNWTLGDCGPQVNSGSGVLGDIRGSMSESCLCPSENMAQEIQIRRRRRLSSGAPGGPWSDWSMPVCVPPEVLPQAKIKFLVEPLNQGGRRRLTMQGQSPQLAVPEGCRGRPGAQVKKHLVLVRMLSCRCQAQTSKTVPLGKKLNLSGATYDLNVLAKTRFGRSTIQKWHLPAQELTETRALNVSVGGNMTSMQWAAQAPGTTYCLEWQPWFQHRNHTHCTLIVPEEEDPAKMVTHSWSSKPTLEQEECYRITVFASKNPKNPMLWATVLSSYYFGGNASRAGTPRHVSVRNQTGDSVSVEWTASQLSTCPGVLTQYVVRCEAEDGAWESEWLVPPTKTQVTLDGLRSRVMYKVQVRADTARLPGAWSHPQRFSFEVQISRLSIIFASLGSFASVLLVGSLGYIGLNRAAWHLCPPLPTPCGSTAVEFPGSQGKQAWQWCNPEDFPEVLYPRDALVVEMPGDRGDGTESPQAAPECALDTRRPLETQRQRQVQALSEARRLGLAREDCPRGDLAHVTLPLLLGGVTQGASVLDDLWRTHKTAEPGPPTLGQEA
T1 sequence (P97378 24-874, chain 2 of 2): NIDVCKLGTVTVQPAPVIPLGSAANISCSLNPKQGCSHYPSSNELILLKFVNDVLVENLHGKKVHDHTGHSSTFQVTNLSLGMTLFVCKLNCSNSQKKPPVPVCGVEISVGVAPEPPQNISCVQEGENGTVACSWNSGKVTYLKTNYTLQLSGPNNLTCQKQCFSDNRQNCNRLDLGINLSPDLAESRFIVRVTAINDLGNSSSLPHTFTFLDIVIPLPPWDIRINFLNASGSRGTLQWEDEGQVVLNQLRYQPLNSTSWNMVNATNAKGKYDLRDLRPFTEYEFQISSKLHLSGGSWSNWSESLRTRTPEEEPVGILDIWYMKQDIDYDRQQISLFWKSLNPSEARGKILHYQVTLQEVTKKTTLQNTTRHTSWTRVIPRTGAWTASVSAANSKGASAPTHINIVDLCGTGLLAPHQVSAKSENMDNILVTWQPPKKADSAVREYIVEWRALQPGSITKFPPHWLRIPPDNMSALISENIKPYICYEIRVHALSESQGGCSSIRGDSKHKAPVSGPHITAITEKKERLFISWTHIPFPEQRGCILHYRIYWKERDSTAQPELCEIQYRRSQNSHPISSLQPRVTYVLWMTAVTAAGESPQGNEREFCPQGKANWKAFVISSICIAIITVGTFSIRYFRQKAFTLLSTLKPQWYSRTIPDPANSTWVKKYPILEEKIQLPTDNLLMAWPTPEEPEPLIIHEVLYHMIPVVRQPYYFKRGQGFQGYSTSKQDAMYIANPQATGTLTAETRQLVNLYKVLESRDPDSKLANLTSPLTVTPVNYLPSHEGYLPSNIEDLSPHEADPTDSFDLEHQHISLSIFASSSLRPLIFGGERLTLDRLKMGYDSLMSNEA
Test: cell-based or functional assay

Row | Binder | EC50 (M); STAT3-Luc reporter, CTLL2/STAT3-Luc cells [M] | Fold induction at 6.25 nM; STAT3-Luc reporter, CTLL2/STAT3-Luc cells [fold] | Max fold induction; STAT3-Luc reporter, CTLL2/STAT3-Luc cells [fold]
1 | B1 | 6.47e-11 | 9.58 | 9.89
2 | B2 | 8.11e-11 | 8.93 | 9.62
3 | B3 | 1.16e-11 | 7.52 | 15.4
4 | B4 | 1.72e-11 | 7.01 | 8.48
5 | B5 | 1.8e-11 | 5.96 | 7.83

Molecular target: T1, murine IL12 receptor complex (IL12Rβ1 …)
Test: cell-based or functional assay
Remark: another data set of the same source

Row | Binder | Fold induction at 20 nM; STAT3-Luc reporter, CTLL2/STAT3-Luc cells [fold] | Max fold induction; STAT3-Luc reporter, CTLL2/STAT3-Luc cells [fold]
6 | B6 | 1.37 | 27.5
